For 167 variants, self-cleavage results are on record in the RNAGym collection of RNA variant scans (doi:10.7554/elife.80360).

B1: HDV Ribozyme (parent)
chain: GGCCGGCAUGGUCCCAGCCUCCUCGCUGGCGCCGGCUGGGCAACAUUCCGAGGGGACCGUCCCCUCGGUAAUGGCGAAUGGGACCCA

Variants of B1 are the subject of this series. Briefly: self-cleavage, relative activity (ratio to wild type); higher = more cleavage; co-transcriptional.
Take C21A G67A: the self-cleavage came to 0.0712. For C21U C26G, the self-cleavage was 0.406.

For C21G A77U, the self-cleavage is 0.0426. With C21G C36A the figure was 0.0405; with C21G C36G, 0; with C21G C36U, 0.0326. With U20C C84G the figure was 0.0978.

U20C C84A: the self-cleavage came out at 0.166. With C21A G81U the figure was 0.0665.

U20C C44A: the self-cleavage was determined as 0. With C22A A42G the figure was 0.

With C22A A42C, the self-cleavage amounted to 0.

With C21G G34C, the self-cleavage came to 0.111.

C22A A45G: the self-cleavage amounted to 0.225. With C21U A43C the figure was 0.0545; with C21A A71C, 0.0692; with C21A G59A, 0.0936. With C21A G59U the figure was 0.0545.

On to C21G C30A, for which the self-cleavage came out at 0. In the case of C21G A42C, the self-cleavage turned out to be 0.166.

For the variant C21A G53A, the self-cleavage was 0.0791. On to C21G C48U, for which the self-cleavage turned out to be 0.0707. As to C21U G59A, the self-cleavage is 0.154. Then U20A C75A, with 0.0923; and U20G C30A, with 0.0378. With C22A U60G the figure was 0.177; with C21G U72C, 0.0426. With C21U C61A the figure was 0.176; with C22A C24G, 0. C22A C24U: the self-cleavage came out at 0.0361. On to C22A C24A, for which the self-cleavage was found to be 0.188. Then C22G A45U, with 0.0415; and U20C G59A, with 0.208. Take C21U U69G: the self-cleavage amounted to 0.19.

C21U U69A: the self-cleavage stood at 0.148. Then U20G A78G, with 0; and U20C C36G, with 0.111; and U20A G55A, with 0.0959. Then C22A C57A, with 0.208.

For C21A C26U, the self-cleavage was found to be 0. As for C21A C41U, the self-cleavage is 0.181. On to C21A C41G, for which the self-cleavage worked out at 0. With C21U G76U the figure was 0.542; with C21U G25C, 0.119. With U20G U46C the figure was 0.185; with C22A G67C, 0.337.

C21G C62G: the self-cleavage amounted to 0.0755.

As to C21A G25C, the self-cleavage came to 0.

On to C21A G25A, for which the self-cleavage amounted to 0.116. Then U20G G35U, with 0; and U20G G35A, with 0.107; and C21U A45U, with 0.283. Take U20G G40U: the self-cleavage turned out to be 0.131. With U20G G40C the figure was 0.0462.

For U20C G74C, the self-cleavage stood at 0.107.

U20A G80A: the self-cleavage stood at 0.0712. For U20C G25A, the self-cleavage turned out to be 0.458. With C22A G53A the figure was 0.222; with C22A G53C, 0.157. Then U20C G80U, with 0.0625. With U20G C63G the figure was 0.104; with U20A C85G, 0.107; with C21A U46A, 0.322. Take U20G A87U: the self-cleavage was found to be 0.158. For C21A G40C, the self-cleavage was 0.111. With C22A U72C the figure was 0. Regarding U20C C62G, the self-cleavage came to 0.0665. Then U20A G40U, with 0.0627; and C22A G55U, with 0.353. With U20A G82A the figure was 0.0739; with U20C C30G, 0.447; with C21G G53C, 0.0978.

In the case of C22A C86U, the self-cleavage was found to be 0.293.

With U20C U72C, the self-cleavage amounted to 0.0755.

Regarding U20C U72A, the self-cleavage is 0.123. For the variant C22A C30U, the self-cleavage worked out at 0.121.

Take C22A C30A: the self-cleavage is 0.0405. As for U20A C63G, the self-cleavage amounted to 0. Then U20C G28U, with 0.119; and U20C G28A, with 0.147. Then C21A A42U, with 0.208; and C21G G80C, with 0.177; and C21G G54C, with 0.0264. With U20C U60G the figure was 0.199; with C22A C41U, 0.252; with C21A U79C, 0.111. Turning to C21A C58G, the self-cleavage was 0.128.

For U20G A45C, the self-cleavage came to 0.158. Then C21A A83U, with 0.0739; and U20A G73U, with 0.0354. With U20A G73C the figure was 0.0615; with C21A C48A, 0.157; with U20G C49A, 0.308. With U20G C49G the figure was 0.361; with U20G C49U, 0.185; with C21G G68U, 0. Consider U20G A43G, for which the self-cleavage came to 0.104. With C21A C57A the figure was 0.102.

Regarding C22G A42U, the self-cleavage stood at 0.0639. C21A A45C: the self-cleavage is 0.0652. For the variant C21A A45G, the self-cleavage was found to be 0.0615. Then U20A G38C, with 0.119; and C21A A87U, with 0.0915. As for C21A A87G, the self-cleavage came to 0.0496.

C22A G59C: the self-cleavage turned out to be 0.361.

With C21G C85U, the self-cleavage turned out to be 0. With C22A U69G the figure was 0.394; with C22A U69C, 0.393; with U20A G81C, 0.0449. With C21G G39C the figure was 0.554.

Turning to U20G C66A, the self-cleavage came out at 0.249.

Take C21U C58G: the self-cleavage was found to be 0.227. With C21U C33A the figure was 0; with C21U C33U, 0.147; with C21U C33G, 0.104. With C21G U60C the figure was 0.0489; with C21A U69A, 0.175; with C21A C84G, 0.0314. As for U20A U37C, the self-cleavage was 0. Then C21G G38C, with 0; and C22A U47G, with 0.232. With C21A G80C the figure was 0.0496; with C21G U65G, 0. U20A G29C: the self-cleavage was found to be 0.128. Turning to C21A G35U, the self-cleavage came to 0.0744. Then U20A U27C, with 0. With C21G C75U the figure was 0.0378; with C21G C75A, 0.0415. With U20C U23A the figure was 0.115; with U20G G50A, 0.151. C21G C32U: the self-cleavage was determined as 0.128. With C21A C36G the figure was 0.0627; with C21A C36U, 0.0339. With C21G G76C the figure was 0; with U20C C57G, 0.0723. Then C21U A71G, with 0.243. On to U20G G53A, for which the self-cleavage turned out to be 0.148.

As to C22A G81C, the self-cleavage worked out at 0.128. Then C22A U46G, with 0.172. Then C21G U37C, with 0.0615; and C21G U37A, with 0.119.

Take U20A G39A: the self-cleavage came to 0.133.

For U20C G52U, the self-cleavage was 0.145. With U20G U60G the figure was 0.0831; with C21G G35A, 0.0817.

Regarding C21A A70C, the self-cleavage turned out to be 0.0426. In the case of C21G G67U, the self-cleavage is 0.0723. With C21G U27A the figure was 0; with C21G A83G, 0.0987. U20G C33U: the self-cleavage was found to be 0.0852. Then C22A C49U, with 0.338; and U20C G31U, with 0.141; and C21G C41G, with 0.095. With C21U U60G the figure was 0.122; with U20G A70U, 0.196; with U20G A70G, 0.312. With C22A C48G the figure was 0.363; with C21U A77U, 0.13. U20A G52C: the self-cleavage is 0.0449. With U20C A51G the figure was 0; with C21A C22U, 0.138. Then C21U C63G, with 0.119; and U20C A42C, with 0.158; and U20G U23C, with 0. With U20G U23A the figure was 0; with C22A A43U, 0.0437.

As to C21U C22U, the self-cleavage came out at 0.0702.
